# Results: US20200171136A1 (SUMITOMO DAINIPPON PHARMA, published 2020)
# Biological target: T1, Endoplasmic reticulum aminopeptidase 1 (ERAP1) (UniProt Q9NZ08 1-941, limits assumed)
# Assay: cell-based or functional assay
# T1 sequence (Q9NZ08 whole entry): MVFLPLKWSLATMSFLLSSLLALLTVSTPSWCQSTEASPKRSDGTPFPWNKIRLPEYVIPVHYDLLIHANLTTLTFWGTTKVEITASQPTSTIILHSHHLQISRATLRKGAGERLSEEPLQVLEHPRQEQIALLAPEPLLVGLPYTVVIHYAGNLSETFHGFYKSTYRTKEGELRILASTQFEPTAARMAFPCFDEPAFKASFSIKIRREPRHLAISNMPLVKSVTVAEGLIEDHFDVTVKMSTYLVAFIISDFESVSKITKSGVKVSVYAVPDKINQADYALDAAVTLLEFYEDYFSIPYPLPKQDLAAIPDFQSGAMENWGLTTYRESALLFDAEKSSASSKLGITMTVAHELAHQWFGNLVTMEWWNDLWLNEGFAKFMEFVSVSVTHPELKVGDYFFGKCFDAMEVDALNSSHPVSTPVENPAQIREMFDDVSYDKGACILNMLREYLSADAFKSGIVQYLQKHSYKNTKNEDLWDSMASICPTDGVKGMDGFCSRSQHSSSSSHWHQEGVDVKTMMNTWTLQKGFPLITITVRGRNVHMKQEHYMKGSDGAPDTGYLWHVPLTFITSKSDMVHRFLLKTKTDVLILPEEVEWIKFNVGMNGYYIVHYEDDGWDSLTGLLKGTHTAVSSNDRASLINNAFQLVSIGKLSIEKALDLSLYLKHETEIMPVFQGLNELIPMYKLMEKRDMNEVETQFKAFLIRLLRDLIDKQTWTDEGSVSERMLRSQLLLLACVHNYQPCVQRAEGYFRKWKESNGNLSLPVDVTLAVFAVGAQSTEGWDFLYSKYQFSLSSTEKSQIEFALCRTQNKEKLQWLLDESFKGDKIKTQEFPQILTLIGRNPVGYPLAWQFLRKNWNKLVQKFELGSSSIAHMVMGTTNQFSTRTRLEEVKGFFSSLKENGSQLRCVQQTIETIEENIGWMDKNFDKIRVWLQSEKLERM
formation rate (%) 1 hr later [%],formation rate (%) 2 hr later [%],formation rate (%) 4 hr later [%],formation rate (%) 8 hr later [%],Binder
58.3,94.9,88.4,88.3,CLGLYDGMEHL [peptide CLGLYDGMEHL (SEQ ID NO: 90)]
95.1,106,100,101,H-CGLYDGMEHL-OH [peptide CGLYDGMEHL (SEQ ID NO: 98)]
28.7,34.5,36.5,36.8,CMVLQELNVTV [peptide CMVLQELNVTV (SEQ ID NO: 94)]
90.6,103,96,101,CMGLYDGMEHL [peptide CMGLYDGMEHL (SEQ ID NO: 91)]
46.1,49.9,51.3,53.5,CAVLQELNVTV [peptide CAVLQELNVTV (SEQ ID NO: 92)]
87.8,99.4,103,97.5,CAGLYDGMEHL [peptide CAGLYDGMEHL (SEQ ID NO: 89)]
83.4,85.6,78.8,83.9,CVLQELNVTV [peptide CVLQELNVTV (SEQ ID NO: 99)]
31.1,36.9,38.1,36.1,CLVLQELNVTV [peptide CLVLQELNVTV (SEQ ID NO: 93)]

# Biological target: T1, Endoplasmic reticulum aminopeptidase 1 …
# Assay: cell-based or functional assay
# Remark: another data set of the same source
row,formation rate of … (SEQ ID NO: 19)(%),Binder
1,0,CGGLYDGMEHL [peptide CGGLYDGMEHL (SEQ ID NO: 164)]
2,0,CKGLYDGMEHL [peptide CKGLYDGMEHL (SEQ ID NO: 167)]
3,0,CFGLYDGMEHL [peptide CFGLYDGMEHL (SEQ ID NO: 168)]
4,0.4,CIGLYDGMEHL [peptide CIGLYDGMEHL (SEQ ID NO: 166)]
5,6.2,CEGLYDGMEHL [peptide CEGLYDGMEHL (SEQ ID NO: 163)]
6,56.9,CQGLYDGMEHL [peptide CQGLYDGMEHL (SEQ ID NO: 162)]
7,0,CHGLYDGMEHL [peptide CHGLYDGMEHL (SEQ ID NO: 165)]
8,0,CPGLYDGMEHL [peptide CPGLYDGMEHL (SEQ ID NO: 169)]

# Biological target: T1, Endoplasmic reticulum aminopeptidase 1 …
# Assay: cell-based or functional assay
# Remark: another data set of the same source
row,formation rate of … (SEQ ID NO: 19)(%),Binder
1,25,CDGLYDGMEHL [peptide CDGLYDGMEHL (SEQ ID NO: 176)]
2,0,CRGLYDGMEHL [peptide CRGLYDGMEHL (SEQ ID NO: 174)]
3,0,CVGLYDGMEHL [peptide CVGLYDGMEHL (SEQ ID NO: 173)]
4,1.1,CSGLYDGMEHL [peptide CSGLYDGMEHL (SEQ ID NO: 177)]
5,89.4,CTGLYDGMEHL [peptide CTGLYDGMEHL (SEQ ID NO: 170)]
6,82.2,CNGLYDGMEHL [peptide CNGLYDGMEHL (SEQ ID NO: 175)]
7,0,CWGLYDGMEHL [peptide CWGLYDGMEHL (SEQ ID NO: 171)]
8,0,CYGLYDGMEHL [peptide CYGLYDGMEHL (SEQ ID NO: 172)]

# Biological target: T1, Endoplasmic reticulum aminopeptidase 1 …
# Assay: cell-based or functional assay
# Remark: another data set of the same source
row,formation rate of … (SEQ ID NO: 19)(%),Binder
1,2.4,VCGLYDGMEHL [peptide VCGLYDGMEHL (SEQ ID NO: 184)]
2,5.7,YCGLYDGMEHL [peptide YCGLYDGMEHL (SEQ ID NO: 183)]
3,22.2,SCGLYDGMEHL [peptide SCGLYDGMEHL (SEQ ID NO: 180)]
4,5.2,ACGLYDGMEHL [peptide ACGLYDGMEHL (SEQ ID NO: 185)]
5,0,WCGLYDGMEHL [peptide WCGLYDGMEHL (SEQ ID NO: 182)]
6,7.3,TCGLYDGMEHL [peptide TCGLYDGMEHL (SEQ ID NO: 181)]
7,19.2,PCGLYDGMEHL [peptide PCGLYDGMEHL (SEQ ID NO: 179)]
8,3.6,QCGLYDGMEHL [peptide QCGLYDGMEHL (SEQ ID NO: 178)]
9,0,RCGLYDGMEHL [peptide RCGLYDGMEHL (SEQ ID NO: 186)]

# Biological target: T1, Endoplasmic reticulum aminopeptidase 1 …
# Assay: cell-based or functional assay
# Remark: another data set of the same source
row,formation rate of … (SEQ ID NO: 19)(%),Binder
1,0,KCGLYDGMEHL [peptide KCGLYDGMEHL (SEQ ID NO: 194)]
2,0,ICGLYDGMEHL [peptide ICGLYDGMEHL (SEQ ID NO: 192)]
3,0,LCGLYDGMEHL [peptide LCGLYDGMEHL (SEQ ID NO: 193)]
4,0,HCGLYDGMEHL [peptide HCGLYDGMEHL (SEQ ID NO: 191)]
5,3.2,DCGLYDGMEHL [peptide DCGLYDGMEHL (SEQ ID NO: 188)]
6,10.4,GCGLYDGMEHL [peptide GCGLYDGMEHL (SEQ ID NO: 190)]
7,18.2,NCGLYDGMEHL [peptide NCGLYDGMEHL (SEQ ID NO: 187)]
8,2.9,ECGLYDGMEHL [peptide ECGLYDGMEHL (SEQ ID NO: 189)]
9,17.6,FCGLYDGMEHL [peptide FCGLYDGMEHL (SEQ ID NO: 196)]
10,5.8,MCGLYDGMEHL [peptide MCGLYDGMEHL (SEQ ID NO: 195)]

# Biological target: T1, Endoplasmic reticulum aminopeptidase 1 …
# Assay: cell-based or functional assay
# Remark: another data set of the same source
row,formation rate of … (SEQ ID NO: 43)(%),Binder
1,1.1,GCVLQELNVTV [peptide GCVLQELNVTV (SEQ ID NO: 149)]
2,1.8,ACVLQELNVTV [peptide ACVLQELNVTV (SEQ ID NO: 143)]
3,0.7,YCVLQELNVTV [peptide YCVLQELNVTV (SEQ ID NO: 160)]
4,1.3,SCVLQELNVTV [peptide SCVLQELNVTV (SEQ ID NO: 157)]
